We go through 2 proteins from publication PMC5663463 (Protein expression and purification, 2012).

This data set concerns the molecule itself. In words: SEC. For orientation: SEC sorts molecules by how far they enter the pores of the column.

B1: native (cleaved) Staphylococcus aureus dihydroorotase (PyrC) (enzyme)
chain: GPMKLIKNGKVLQNGELQQADILIDGKVIKQIAPAIEPSNGVDIIDAKGHFVSPGFVDVHVHLREPGGEYKETIETGTKAAARGGFTTVCPMPNTRPVPDSVEHFEALQKLIDDNAQVRVLPYASITTRQLGKELVDFPALVKEGAFAFTDDGVGVQTASMMYEGMIEAAKVNKAIVAHCEDNSLIYGGAMHEGKRSKELGIPGIPNICESVQIARDVLLAEAAGCHYHVCHVSTKESVRVIRDAKRAGIHVTAEVTPHHLLLTEDDIPGNNAIYKMNPPLRSTEDREALLEGLLDGTIDCIATDHAPHARDEKAQPMEKAPFGIVGSETAFPLLYTHFVKNGDWTLQQLVDYLTIKPCETFNLEYGTLKENGYADLTIIDLDSEQEIKGEDFLSKADNTPFIGYKVYGNPILTMVEGEVKFEGDK
With B1, the stoichiometry N – broadly, the number of molecules, sites or subunits per partner or assembly – was 2.

B2: His-SUMO tagged Staphylococcus aureus dihydroorotase (PyrC) (enzyme)
chain: LEVLFQGPMKLIKNGKVLQNGELQQADILIDGKVIKQIAPAIEPSNGVDIIDAKGHFVSPGFVDVHVHLREPGGEYKETIETGTKAAARGGFTTVCPMPNTRPVPDSVEHFEALQKLIDDNAQVRVLPYASITTRQLGKELVDFPALVKEGAFAFTDDGVGVQTASMMYEGMIEAAKVNKAIVAHCEDNSLIYGGAMHEGKRSKELGIPGIPNICESVQIARDVLLAEAAGCHYHVCHVSTKESVRVIRDAKRAGIHVTAEVTPHHLLLTEDDIPGNNAIYKMNPPLRSTEDREALLEGLLDGTIDCIATDHAPHARDEKAQPMEKAPFGIVGSETAFPLLYTHFVKNGDWTLQQLVDYLTIKPCETFNLEYGTLKENGYADLTIIDLDSEQEIKGEDFLSKADNTPFIGYKVYGNPILTMVEGEVKFEGDK
With B2, the “stoichiometry N” value was determined as 2.
